For 3 substances, reduction of the increased T-cell proliferation supported by MC38/ICAM-1 stimulator cells with Con A, inhibition of the increased T-cell proliferation supported by MC38/B7-1 stimulator cells with Con A and reduction of the increased T-cell proliferation supported by MC38/LFA-3 stimulator cells with Con A results are on record in EP1137792B9.

Assay in all cases: cell-based or functional assay
For assay [1], the target named is murine Intercellular adhesion molecule-1 (ICAM-1; CD54) (murine) (UniProt P13597).
Chain of UniProt P13597 (P13597 28-537): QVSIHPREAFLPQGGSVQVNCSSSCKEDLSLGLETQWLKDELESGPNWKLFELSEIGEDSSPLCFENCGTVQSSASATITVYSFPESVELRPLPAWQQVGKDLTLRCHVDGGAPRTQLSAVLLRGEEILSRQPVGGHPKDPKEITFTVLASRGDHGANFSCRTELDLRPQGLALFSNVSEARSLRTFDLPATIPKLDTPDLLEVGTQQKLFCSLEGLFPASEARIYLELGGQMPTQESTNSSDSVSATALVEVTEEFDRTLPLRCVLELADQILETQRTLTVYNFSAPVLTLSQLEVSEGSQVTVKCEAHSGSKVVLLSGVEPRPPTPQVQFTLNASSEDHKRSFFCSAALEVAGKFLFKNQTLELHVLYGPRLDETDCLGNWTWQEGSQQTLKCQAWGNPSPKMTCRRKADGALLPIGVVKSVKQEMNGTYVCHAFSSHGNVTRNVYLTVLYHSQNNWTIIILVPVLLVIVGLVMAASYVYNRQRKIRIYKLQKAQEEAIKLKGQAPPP
For assay [2], the target named is murine B7-1 (CD80) (murine) (UniProt Q00609).
Chain of UniProt Q00609 (Q00609 38-306): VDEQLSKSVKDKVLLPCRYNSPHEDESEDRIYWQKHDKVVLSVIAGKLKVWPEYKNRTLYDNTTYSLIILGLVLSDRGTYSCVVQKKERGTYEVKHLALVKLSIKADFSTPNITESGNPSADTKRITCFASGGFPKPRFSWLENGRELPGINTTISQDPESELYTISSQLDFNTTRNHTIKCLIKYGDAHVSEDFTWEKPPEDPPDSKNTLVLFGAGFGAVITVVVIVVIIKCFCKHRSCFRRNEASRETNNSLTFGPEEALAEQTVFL
For assay [3], the target named is murine LFA-3 (murine CD48) (murine) (UniProt P18181).
Chain of UniProt P18181 (P18181 23-217): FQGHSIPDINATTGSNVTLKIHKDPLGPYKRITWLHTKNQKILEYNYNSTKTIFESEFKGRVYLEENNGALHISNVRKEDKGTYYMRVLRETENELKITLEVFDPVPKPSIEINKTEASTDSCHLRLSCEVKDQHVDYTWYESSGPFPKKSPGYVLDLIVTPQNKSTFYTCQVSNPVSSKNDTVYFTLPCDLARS

Turning to “Hamster anti-murine CD54 (ICAM-1; clone 3E2) (antibody)”, in assay [1], the reduction of the increased T-cell proliferation supported by MC38/ICAM-1 stimulator cells with Con A is 88%. With “Hamster anti-murine CD80 (B7-1; clone 16-10A1) (antibody)”, the inhibition of the increased T-cell proliferation supported by MC38/B7-1 stimulator cells with Con A in assay [2] worked out at 83%.

In turn, “Hamster anti-murine CD48 (BCM-1; clone HM48-1) (antibody)” showed a reduction of the increased T-cell proliferation supported by MC38/LFA-3 stimulator cells with Con A in assay [3] of 98%.
